What all share (format): cell-based, human
Series [1] has as its system DUX4 protein. As to the kind of experiment: Western blot of V5-tagged DUX4 protein in co-transfected HEK293 cells. To be noted: CMV.DUX4-FL/CMV.eGFP, HEK293, molar ratio 1 to 3, eGFP normalizer, relative to U6-milacZ, N = 3-8.
The test system of series [2] is mir-675-5p. As to the kind of experiment: ddPCR of all mature mir-675-5p sequences (TaqMan Advanced miRNA cDNA synthesis) in HEK293 cells. Here is the method: Digital Droplet PCR (ddPCR). For mir-675 and mi405 constructs, RNA extraction was carried out as described for QPCR above. For cDNA synthesis, the TaqMan advanced cDNA synthesis kit (Thermo Fisher) was used and cDNA was prepared by following manufacturer's instructions. ddPCR was carried out using 1× ddPCR Supermix for probes (No dUTP) (Bio-Rad), 1× commercially available mir-675 advanced TaqMan probe, or a custom made mi405 advanced TaqMan probe (ThermoFisher) and 50 ng of cDNA. For DUX4 cDNA synthesis, the High-Capacity cDNA Reverse Transcription Kit (Applied Biosystems) was used according to manufacturer's instructions. Within the same cDNA reaction, 1×RT random hexamer primers and 25 pmoles of the Oligo(dT) primer were used to generate cDNA for DUX4 and DUX4-responsive biomarkers and for mouse Rpl13A, used as a reference gene. To quantify DUX4, the ddPCR reaction mixture (20 μL) contained 1× ddPCR Evagreen Supermix (Bio-Rad), 1 μM of forward and reverse DUX4 primers (Sharma et al., J Genet Syndr Gene Ther 2016 August; 7(4):303. doi: 10.4172/2157-7412.1000303. Epub 2016 Aug. 8), and 50 ng of cDNA. To quantify Rpl13A and DUX4-responsive biomarkers (Trim36 and Wfdc3), the 1× ddPCR Supermix for probes (No dUTP) and TaqMan specific probes were used for each of the genes. Droplets were generated using the Automatic Droplet generator QX200 AutoDG (Bio-Rad), the reactions were amplified in a C1000 Touch™ Thermal Cycler with 96-Deep Well Reaction Module (Bio-Rad). Cycling conditions were set up following the QX200 ddPCR Evagreen Supermix protocol. All assays are compatible with an annealing temperature of 58° C. Droplets were then read using the QX200 droplet reader (Bio-Rad). Finally, data were analyzed using the QuantaSoft analysis software (Bio-Rad). For quantification, each reaction of 20 μL was estimated to give at least 10,000 acceptable droplets.
In order to quantify the level of all these mature sequences, the TaqMan advanced miRNA cDNA synthesis method that uses universal reverse transcription (RT) chemistry to synthesize cDNA templates that can be quantified using the TaqMan Advanced miRNA probes was used. In this method, most of the processed mature miRNA sequences were quantified.

Series [3] has as its system pri-mir-675. As to the kind of experiment: TaqMan QRT-PCR of pri-mir-675 from transfected constructs in HEK293 cells. To be noted: 24 h post-transfection. The text has this: (§1) RNA Extraction. RNA from HEK293 cells was extracted for Northern blot assay and QPCR. The miRVANA miRNA isolation kit (ThermoFisher Scientific) was used according to manufacturer's directions to extract total RNA encompassing small RNAs, such as miRNAs. To extract RNA from C57BL/6 skeletal muscles, cryopreserved muscles were crushed under suboptimal temperatures using liquid nitrogen and using mortar and pestle. Crushed muscles were then lysed using […] of miRVANA miRNA isolation kit lysis buffer, a TissueLyser and 1.0 mm zirconia beads (Biospec). Muscle was homogenized at 30 Hz for 30 sec with 10 sec rest. This was repeated 3 times.
(§2) TaqMan Gene Expression Assay. QRT-PCR was carried out to quantify the expression of pri-mir-675, mir-675-5p and mi405 using TaqMan probes (ThermoFisher Scientific). Experiments were started by eliminating genomic DNA from the RNA preparations, and then cDNA was generated using the High-Capacity cDNA Reverse Transcription Kit (Applied Biosystems) following manufacturer's instructions. Within the same cDNA reaction, 1×RT random hexamer primers were used to generate the cDNA for RPL13A, used as a reference gene, and for pri-mir-675. To generate the cDNA for mir-675, the RT mir-675 reverse primer provided by ThermoFisher Scientific was used. For mi405, the mi405 qPCR protocol was done as it was previously described [Wallace et al., Mol. Ther. Methods Clin. Dev. 8: 121-30 (2018)]. To quantify mir-675 and mi405 levels, RNA was extracted using the total RNA protocol for the mirVana miRNA Isolation Kit (Ambion) from HEK293 cells. cDNA was generated using the High-Capacity cDNA Reverse Transcription Kit (Applied Biosystems) using a mix of random hexamer primers and specific reverse primer for pri-mir-675 and mir-675-5p. For mi405, 200 nM of the stem-loop forming primer (5′-[…]-3′) (SEQ ID NO: 144) was also used for the RT step. A custom TaqMan assay (Applied Biosystems) including 1.5 μM of Forward primer (5′-[…]-3′) (SEQ ID NO: 145), 0.7 μM of Reverse primer (5′-GTGCAGGGTCCGAGGT-3′) (SEQ ID NO: 146), and 0.2 μM of mi405 probe (5′-6FAM-ATACGACGTCCAGGAT-3′) (SEQ ID NO: 147) was then run using the CFX Connect Real Time system apparatus (Bio-Rad). RPL13A (Mm02526700_g1; Applied Biosystems) served as the reference gene. The TaqMan gene expression assay consisted of using the TaqMan Gene Expression Master mix and TaqMan probes purchased from ThermoFisher Scientific. 1× of probe was mixed with 1× of the TaqMan Gene Expression Master mix (ThermoFisher Scientific), and with 20 ng of cDNA. The mir-675- and mi405-specific primers and probes were designed to quantify only the mir-675-5p and mi405 mature sequence (see TaqMan Gene Expression Master mix protocol).

Series [4] deals with mir-675-5p. As to the kind of experiment: Small-transcript northern blot of mir-675 processing in HEK293 cells. To be noted: HEK293; anti-mir-675-5p biotinylated probe. The source says:
Small-Transcript Northern Blots. […] (SEQ ID NO: 148)).

Series [5] deals with mir-675-5p. As to the kind of experiment: TaqMan QRT-PCR of mature mir-675-5p from transfected constructs in HEK293 cells. The settings on record: HEK293, 24 h post-transfection; for mir-675-5p levels compared to U6.mir-675: 23 mer mature mir-675-5p.
Source text: as §1, §2

B1: U6.mir-675NF: U6 mir-675 construct with no flanking sequences (nucleic acid)
DNA: TCTAGAGATCCGACGCCGCCATCTCTAGGCCCGCGCCGGCCCCCTCGCACAGACTTGTGGGAGAAGCTCGGCTACTCCCCTGCCCCGGTTAATTTGCATATAATATTTCCTAGTAACTATAGAGGCTTAATGTGCGATAAAAGACAGATAATCTGTTCTTTTTAATACTAGCTACATTTTACATGATAGGCTTGGATTTCTATAAGAGATACAAATACTAAATTATTATTTTAAAAAACAGCACAAAAGGAAACTCACCCTAACTGTAAAGTAATTGTGTGTTTTGAGACTATAAATATCCCTTGGAGAAAAGCCTTGTTTGCCCCAGGGTCTGGTGCGGAGAGGGCCCACAGTGGACTTGGTGACGCTGTATGCCCTCACCGCTCAGCCCCTGGGGTTTTTT
Consider B1, for which, in series [1], the “Average inhibition efficiency (%) of DUX4 protein levels” value (shortened to “Average inhibition efficiency (%)”) is reported as 69 ± 6 (N = 5) %. The “fold change of all mature mir-675-5p sequences compared to U6.mir-675” value (“fold change” for short) in series [2] amounted to 176±60%. For the same molecule, in series [3], the “pri-mir-675 levels compared to U6.mir-675” value is recorded as 213±28%. The “mature mir-675-5p bands on northern blot” value in series [4] is “detectable mir-675 mature sequences”.

B2: U6.mir-675H: mir-675 construct with modified flanking sequences and UA dinucleotide (nucleic acid)
DNA: TCTAGAGATCCGACGCCGCCATCTCTAGGCCCGCGCCGGCCCCCTCGCACAGACTTGTGGGAGAAGCTCGGCTACTCCCCTGCCCCGGTTAATTTGCATATAATATTTCCTAGTAACTATAGAGGCTTAATGTGCGATAAAAGACAGATAATCTGTTCTTTTTAATACTAGCTACATTTTACATGATAGGCTTGGATTTCTATAAGAGATACAAATACTAAATTATTATTTTAAAAAACAGCACAAAAGGAAACTCACCCTAACTGTAAAGTAATTGTGTGTTTTGAGACTATAAATATCCCTTGGAGAAAAGCCTTGTTTGACCGTTTAAACCCCAGGGTCTGGTGCGGAGAGGGCCCACAGTGGACTTGGTGACGCTGTATGCCCTCACCGCTCAGCCCCTGGGGCGCACGCCAGTTTTTT
With B2, the “Average inhibition efficiency (%)” value in series [1] is reported as 89±6%. For the same molecule, the “Average inhibition efficiency (%)” value in series [1] (listed as U6-mir-675H) is 89 ± 6 (N = 3) %. In series [5], the “mir-675-5p levels compared to U6.mir-675” value is given as 774±93% and the “ratio of mir-675-5p/pri-mir-675 compared to U6.mir-675” value is reported as 303±57%. Further, the “fold change” value in series [2] is 201±38%. Besides, the “pri-mir-675 levels compared to U6.mir-675” value in series [3] is 256±37%.

B3: U6.mir-675-2.3.1: mir-675 construct with modified 5' and 3' flanking sequences (nucleic acid)
DNA: TCTAGAGATCCGACGCCGCCATCTCTAGGCCCGCGCCGGCCCCCTCGCACAGACTTGTGGGAGAAGCTCGGCTACTCCCCTGCCCCGGTTAATTTGCATATAATATTTCCTAGTAACTATAGAGGCTTAATGTGCGATAAAAGACAGATAATCTGTTCTTTTTAATACTAGCTACATTTTACATGATAGGCTTGGATTTCTATAAGAGATACAAATACTAAATTATTATTTTAAAAAACAGCACAAAAGGAAACTCACCCTAACTGTAAAGTAATTGTGTGTTTTGAGACTATAAATATCCCTTGGAGAAAAGCCTTGTTTGAATCACACTGCCCCAGGGTCTGGTGCGGAGAGGGCCCACAGTGGACTTGGTGACGCTGTATGCCCTCACCGCTCAGCCCCTGGGGATAACTCCTAATCACACTTTTTT
With B3, the “Average inhibition efficiency (%)” value in series [1] is given as 58 ± 8 (N = 3) %. Also, the “mir-675-5p levels compared to U6.mir-675” value in series [5] came to 241±29%. In addition, in series [2], the “fold change” value is 187±40%. The “pri-mir-675 levels compared to U6.mir-675” value in series [3] is on record as 274±49%.

Values taken from patent publication US20240093191A1, “COMPOSITIONS AND METHODS FOR TREATING DISEASE ASSOCIATED WITH DUX4 OVEREXPRESSION” (RESEARCH INSTITUTE AT NATIONWIDE CHILDREN'S HOSPITAL, priority 2021, published 2024).
